The source of these data is publication PMC11705640, “Tubulointerstitial nephritis antigen-like 1 promotes the progression of liver fibrosis after HCV eradication with direct-acting antivirals” (International Journal of Biological Sciences, 2025).

In this experiment the target is T1, recombinant human TINAGL1 protein (tubulointerstitial nephritis antigen-like 1), C-6×His (human, UniProt Q9GZM7 22-467).
T1 construct: tubulointerstitial nephritis antigen-like 1 (TINAGL1), human, recombinant; Bought protein; Held on the Ni-NTA chip by its C-terminal His tag; also called rhTINAGL1; source: bought: Novoprotein (Cat# CB22); not shown: His6, C-terminal, kept
T1 sequence (looked up): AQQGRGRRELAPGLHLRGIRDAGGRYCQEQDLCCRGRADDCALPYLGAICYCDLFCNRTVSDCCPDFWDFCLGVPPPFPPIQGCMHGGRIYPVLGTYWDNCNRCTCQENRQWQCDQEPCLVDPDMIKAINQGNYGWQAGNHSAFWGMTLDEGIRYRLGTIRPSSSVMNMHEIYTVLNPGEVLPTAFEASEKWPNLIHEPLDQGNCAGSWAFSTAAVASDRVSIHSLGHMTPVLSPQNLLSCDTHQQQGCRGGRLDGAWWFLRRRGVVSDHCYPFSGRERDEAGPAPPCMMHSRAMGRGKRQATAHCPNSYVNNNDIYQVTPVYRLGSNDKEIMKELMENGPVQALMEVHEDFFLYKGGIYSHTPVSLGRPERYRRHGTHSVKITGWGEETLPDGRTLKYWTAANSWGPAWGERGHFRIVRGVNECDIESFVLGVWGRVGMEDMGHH
Nature of the experiment: SPR; rhTINAGL1 (C-6×His) immobilised on Ni-NTA chip (Reichert 4SPR, 40 mM nickel sulfate); dilution series of rhPDGF-BB in PBST injected at 62.5 μL/min; association 4 min, dissociation 5 min; TraceDrawer v1.8.1. The note with it: both partners purified. In general terms: In SPR one partner is held on a chip, and binding of the other changes the refractive index at the surface.

B1: recombinant human PDGF-BB (platelet-derived growth factor-BB) (ligand, UniProt P01127 82-190, looked up)
chain: SLGSLTIAEPAMIAECKTRTEVFEISRRLIDRTNANFLVWPPCVEVQRCSGCCNNRNVQCRPTQVQLRPVQVRKIEIVRKKPIFKKATVTLEDHLACKCETVAAARPVT
notes: platelet-derived growth factor subunit B, human, recombinant PDGF-BB; also called rhPDGF-BB; source: bought: Peprotech (Cat# 100-14B)
Broadly, the Kd is the free concentration of one partner at which half of the binding sites on the other are occupied at equilibrium, for simple one-to-one binding. On to B1, for which the equilibrium dissociation constant (Kd) stood at 185 nM.
